Results reported in US20040053370A1 (Eli Lilly, published 2004).
Where a chain is given by its changes, count along the chain named. Where two headings read alike, the source gives them in different places. Ends that are not written are not given here.

B1: Val^8-Glu^22-GLP-1(7-36)NH2 (peptide)
peptide: HVEGTFTSDVSSYLEEQAAKEFIAWLVKGR-NH2
B2: Val^8-Lys^33-Val^34-GLP-1(7-37)OH (peptide)
peptide: HVEGTFTSDVSSYLEGQAAKEFIAWLKVGRG
B3: Val^8-Gly^34-Lys^35-GLP-1(7-37)OH (peptide)
peptide: B2 peptide with K27V, V28G, G29K
B4: Val^8-Gly^36-Pro^37-GLP-1(7-37)NH2 (peptide)
peptide: HVEGTFTSDVSSYLEGQAAKEFIAWLVKGGP-NH2
B5: Gly^8-His^11-GLP-1(7-37)OH (peptide)
peptide: HGEGHFTSDVSSYLEGQAAKEFIAWLVKGRG
B6: Gly^8-Glu^30-GLP-1(7-37)OH (peptide)
peptide: B5 peptide with H5T, A24E
B7: Val^8-Phe^20-Glu^22-GLP-1(7-37)OH (peptide)
peptide: HVEGTFTSDVSSYFEEQAAKEFIAWLVKGRG
B8: Val^8-His^27-GLP-1(7-37)OH (peptide)
peptide: B5 peptide with G2V, H5T, E21H
B9: Val^8-Ala^16-GLP-1(7-37)OH (peptide)
peptide: B5 peptide with G2V, H5T, V10A
B10: Val^8-Glu^34-GLP-1(7-37)OH (peptide)
peptide: B2 peptide with K27V, V28E
B11: Val^8-Lys^22-GLP-1(7-37)OH (peptide)
peptide: B7 peptide with F14L, E16K
B12: Val^8-Leu^16-GLP-1(7-37)OH (peptide)
peptide: B5 peptide with G2V, H5T, V10L
B13: Val^8-Gly^33-GLP-1(7-37)OH (peptide)
peptide: B2 peptide with K27G, V28K
B14: Val^8-Ser^22-GLP-1(7-37)OH (peptide)
peptide: B7 peptide with F14L, E16S
B15: Val^8-Lys^22-Glu^30-GLP-1(7-37)OH (peptide)
peptide: B7 peptide with F14L, E16K, A24E
B16: Val^8-His^30-GLP-1(7-37)OH (peptide)
peptide: B5 peptide with G2V, H5T, A24H
B17: Val^8-Glu^16-GLP-1(7-37)OH (peptide)
peptide: B5 peptide with G2V, H5T, V10E
B18: Val^8-Ala^22-GLP-1(7-37)OH (peptide)
peptide: B7 peptide with F14L, E16A
B19: Val^8-Glu^22-Lys^23-GLP-1(7-37)OH (peptide)
peptide: B7 peptide with F14L, Q17K
B20: Val^8-Cys^16-Lys^26-GLP-1(7-37)OH (peptide)
peptide: B5 peptide with G2V, H5T, V10C
B21: Val^8-Asp^30-GLP-1(7-37)OH (peptide)
peptide: B5 peptide with G2V, H5T, A24D
B22: Val^8-Glu^22-Ile^27-GLP-1(7-37)OH (peptide)
peptide: B7 peptide with F14L, E21I
B23: Val^8-Ala^11-GLP-1(7-37)OH (peptide)
peptide: B5 peptide with G2V, H5A
B24: Val^8-Glu^22-GLP-1(7-37)OH (peptide)
peptide: B7 peptide with F14L
B25: Val^8-His^26-GLP-1(7-37)OH (peptide)
peptide: B5 peptide with G2V, H5T, K20H
B26: Val^8-Ala^33-GLP-1(7-37)OH (peptide)
peptide: B2 peptide with K27A, V28K
B27: Gln^22-GLP-1(7-37)OH (peptide)
peptide: B5 peptide with G2A, H5T, G16Q
B28: Val^8-Glu^35-GLP-1(7-37)OH (peptide)
peptide: B5 peptide with G2V, H5T, G29E
B29: Val^8-His^36-GLP-1(7-37)OH (peptide)
peptide: B5 peptide with G2V, H5T, R30H
B30: Val^8-His^24-GLP-1(7-37)OH (peptide)
peptide: B5 peptide with G2V, H5T, A18H
B31: Val^8-Glu^26-GLP-1(7-37)OH (peptide)
peptide: B5 peptide with G2V, H5T, K20E
B32: Val^8-Tyr^16-Trp^19-Glu^22-GLP-1(7-37)OH (peptide)
peptide: B7 peptide with V10Y, Y13W, F14L
B33: Val^8-Glu^22-Leu^25-GLP-1(7-37)OH (peptide)
peptide: B7 peptide with F14L, A19L
B34: Val^8-Glu^30-GLP-1(7-37)OH (peptide)
peptide: B5 peptide with G2V, H5T, A24E
B35: Val^8-Lys^20-GLP-1(7-37)OH (peptide)
peptide: B7 peptide with F14K, E16G
B36: Val^8-Lys^24-GLP-1(7-37)OH (peptide)
peptide: B5 peptide with G2V, H5T, A18K
B37: Val^8-His^22-GLP-1(7-37)OH (peptide)
peptide: B7 peptide with F14L, E16H
B38: Val^8-Glu^36-GLP-1(7-37)OH (peptide)
peptide: B5 peptide with G2V, H5T, R30E
B39: Val^8-His^37-GLP-1(7-37)OH (peptide)
peptide: B5 peptide with G2V, H5T, G31H
B40: Val^8-Pro^35-GLP-1(7-37)OH (peptide)
peptide: B5 peptide with G2V, H5T, G29P
B41: Val^8-Lys^23-GLP-1(7-37)OH (peptide)
peptide: B5 peptide with G2V, H5T, Q17K
B42: Val^8-Glu^22-Ile^25-GLP-1(7-37)OH (peptide)
peptide: B7 peptide with F14L, A19I
B43: Val^8-Pro^22-GLP-1(7-37)OH (peptide)
peptide: B7 peptide with F14L, E16P
B44: Val^8-Lys^22-Glu^23-GLP-1(7-37)OH (peptide)
peptide: B7 peptide with F14L, E16K, Q17E
B45: Val^8-His^35-GLP-1(7-37)OH (peptide)
peptide: B5 peptide with G2V, H5T, G29H
B46: Val^8-Trp^12-GLP-1(7-37)OH (peptide)
peptide: B5 peptide with G2V, H5T, F6W
B47: Val^8-Ser^30-GLP-1(7-37)OH (peptide)
peptide: B5 peptide with G2V, H5T, A24S
B48: Val^8-Lys^11-GLP-1(7-37)OH (peptide)
peptide: B5 peptide with G2V, H5K
B49: Gly^8-GLP-1(7-37)OH (peptide)
peptide: B5 peptide with H5T
B50: Val^8-Glu^33-GLP-1(7-37)OH (peptide)
peptide: B2 peptide with K27E, V28K
B51: Val^8-Asp^22-GLP-1(7-37)OH (peptide)
peptide: B7 peptide with F14L, E16D
B52: Val^8-Lys^22-GLP-1(7-36)NH2 (peptide)
peptide: HVEGTFTSDVSSYLEKQAAKEFIAWLVKGR-NH2
B53: Val^8-Leu^16-Glu^26-GLP-1(7-37)OH (peptide)
peptide: HVEGTFTSDLSSYLEGQAAEEFIAWLVKGRG
B54: Val^8-Asp^9-Ile^11-Tyr^16-Glu^22-GLP-1(7-37)OH (peptide)
peptide: HVDGIFTSDYSSYLEEQAAKEFIAWLVKGRG
B55: Val^8-Trp^16-Glu^22-Val^25-Ile^33-GLP-1(7-37)OH (peptide)
peptide: HVEGTFTSDWSSYLEEQAVKEFIAWLIKGRG
B56: Val^8-Tyr^12-GLP-1(7-36)NH2 (peptide)
peptide: HVEGTYTSDVSSYLEGQAAKEFIAWLVKGR-NH2

How the values were obtained:
GLP-1 receptor [1] = assay: cell-based or functional assay
GLP-1 receptor [2] = assay: cell-based or functional assay; remark: listed apart in the source

Row | Binder | GLP-1 Receptor Activation (GLP-1 receptor [1]) | GLP-1 Receptor Activation (GLP-1 receptor [2])
1 | B1 | 1 fold of GLP-1(7-37)OH | –
2 | B2 | 0.08 fold of GLP-1(7-37)OH | –
3 | B3 | 0.34 fold of GLP-1(7-37)OH | –
4 | B4 | 0.53 fold of GLP-1(7-37)OH | –
5 | B5 | 0.282 fold of GLP-1(7-37)OH | –
6 | B6 | 0.29 fold of GLP-1(7-37)OH | –
7 | B7 | – | 1.27 fold of GLP-1(7-37)OH
8 | B8 | 0.37 fold of GLP-1(7-37)OH | –
9 | B9 | 0.112 fold of GLP-1(7-37)OH | –
10 | B10 | 0.17 fold of GLP-1(7-37)OH | –
11 | B11 | 0.58 fold of GLP-1(7-37)OH | –
12 | B12 | – | 0.52 fold of GLP-1(7-37)OH
13 | B13 | 0.01 fold of GLP-1(7-37)OH | –
14 | B14 | 0.5 fold of GLP-1(7-37)OH | –
15 | B15 | 0.37 fold of GLP-1(7-37)OH | –
16 | B16 | 0.19 fold of GLP-1(7-37)OH | –
17 | B17 | 0.047 fold of GLP-1(7-37)OH | –
18 | B18 | 0.56 fold of GLP-1(7-37)OH | –
19 | B19 | 1.43 fold of GLP-1(7-37)OH | –

Row | Binder | GLP-1 Receptor Activation (GLP-1 receptor [1]) | GLP-1 Receptor Activation (GLP-1 receptor [2])
20 | B20 | – | 1.97 fold of GLP-1(7-37)OH
21 | B21 | 0.15 fold of GLP-1(7-37)OH | –
22 | B22 | – | 0.94 fold of GLP-1(7-37)OH
23 | B23 | 0.021 fold of GLP-1(7-37)OH | –
24 | B24 | 1.29 fold of GLP-1(7-37)OH | –
25 | B25 | 1.6 fold of GLP-1(7-37)OH | –
26 | B26 | 0.1 fold of GLP-1(7-37)OH | –
27 | B27 | 0.42 fold of GLP-1(7-37)OH | –
28 | B28 | 0.15 fold of GLP-1(7-37)OH | –
29 | B29 | 0.22 fold of GLP-1(7-37)OH | –
30 | B30 | 0.007 fold of GLP-1(7-37)OH | –
31 | B31 | 1.5 fold of GLP-1(7-37)OH | –
32 | B32 | – | 1.64 fold of GLP-1(7-37)OH
33 | B33 | – | 1.32 fold of GLP-1(7-37)OH
34 | B34 | 0.29 fold of GLP-1(7-37)OH | –
35 | B35 | 0.33 fold of GLP-1(7-37)OH | –
36 | B36 | 0.02 fold of GLP-1(7-37)OH | –
37 | B37 | 0.14 fold of GLP-1(7-37)OH | –
38 | B38 | 0.11 fold of GLP-1(7-37)OH | –

Row | Binder | GLP-1 Receptor Activation (GLP-1 receptor [1]) | GLP-1 Receptor Activation (GLP-1 receptor [2])
39 | B39 | 0.33 fold of GLP-1(7-37)OH | –
40 | B40 | 0.094 fold of GLP-1(7-37)OH | –
41 | B41 | 0.18 fold of GLP-1(7-37)OH | –
42 | B42 | – | 1.46 fold of GLP-1(7-37)OH
43 | B43 | 0.01 fold of GLP-1(7-37)OH | –
44 | B44 | 0.35 fold of GLP-1(7-37)OH | –
45 | B45 | 0.41 fold of GLP-1(7-37)OH | –
46 | B46 | – | 0.52 fold of GLP-1(7-37)OH
47 | B47 | 0.19 fold of GLP-1(7-37)OH | –
48 | B48 | 0.001 fold of GLP-1(7-37)OH | –
49 | B49 | – | 0.8 fold of GLP-1(7-37)OH
50 | B50 | 0.039 fold of GLP-1(7-37)OH | –
51 | B51 | 0.4 fold of GLP-1(7-37)OH | –
52 | B52 | 0.53 fold of GLP-1(7-37)OH | –
53 | B53 | 0.23 fold of GLP-1(7-37)OH | –
54 | B54 | – | 2.02 fold of GLP-1(7-37)OH
55 | B55 | – | 2.35 fold of GLP-1(7-37)OH
56 | B56 | – | 0.52 fold of GLP-1(7-37)OH
